# From the supplement of paper PMC7877785
# ± gives the uncertainty stated by the source.
# Assay: self-splicing fitness, log relative to wild type (ln ratio); higher = more splicing; Tetrahymena group I intron in knt gene, E. coli kanamycin selection, DiMSum; sequences stand for … in CUCUCU…GGAGGGAAAAGUUAUCAGGCAUGCACCUGGUAGCUAGUCUUUAAACCAAUAGAUUGCAUCGGUUUAAAAGGCAAGACCGUCAAAUUGCGGGAAAGGGGUCAACAGCCGUUCAGUACCAAGUCUCAGGGGAAACUUUGAGAUGGCCUUGCAAAGGGUAUGGUAAUAAGCUGACGGACAUGGUCCUAACCACGCAGCCAAGUCCUAAGUCAACAGAUCUUCUGUUGAUAUGGAUGCAGUUCACAGACUAAAUGUCGGUCGGGGAAGAUGUAUUCUUCUCAUAAGAUAUAGUCGGACCUCUCCUUAAUGGGAGCUAGCGGAUGAAGUGAUGCAACACUGGAGCCGCUGGGAACUAAUUUGUAUGCGAAAGUAUAUUGAUUAGUUUUGGAGUACUCGUGGUCG
# Method in brief: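 Fitness was computed with DiMSum as the error-weighted combination of replicate fold changes, kanamycin versus none, each normalised to wild type. The library randomised all eight intron nucleotides of the P1ex region, with the intron placed in the knt kanamycin-resistance gene on pET-22b(+) in E. coli BL21(DE3). Six replicate transformations were grown overnight at 37°C or 30°C on LB agar with or without 25 μg/mL kanamycin, plus 100 μg/mL carbenicillin, 50 μM IPTG and 0.2% rhamnose. Pooled colonies were amplicon-sequenced on an Illumina HiSeq 2500.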
Sequence,self-splicing fitness (ln) (30 °C),self-splicing fitness (ln) (37 °C)
GUACAGCAAUAUUACGACCU,-0.715 ± 0.21,-0.152 ± 0.24
ACCCAGCAAUAUUACGAAUG,-3.41 ± 0.13,-1.2 ± 0.13
AGCAAGCAAUAUUACGAAGG,-4.66 ± 0.36,-1.54 ± 0.22
UUAAAGCAAUAUUACGAGGG,-2.1 ± 0.17,-1.12 ± 0.26
UAAAAGCAAUAUUACGUGCC,-2.01 ± 0.092,-1.26 ± 0.12
UGAAAGCAAUAUUACGUCCU,-0.649 ± 0.091,-0.195 ± 0.081
CCUUAGCAAUAUUACGUCCA,–,-1.92 ± 0.33
UAGUAGCAAUAUUACGCUUC,–,-1.91 ± 0.37
AGCUAGCAAUAUUACGAGAU,-3.17 ± 0.19,-1.22 ± 0.16
UUAAAGCAAUAUUACGGGGC,-3.68 ± 0.25,-2.51 ± 0.32
UUUAAGCAAUAUUACGCCAU,–,-2.36 ± 0.29
AUUGAGCAAUAUUACGACCU,-3.17 ± 0.27,-0.0611 ± 0.17
GUCAAGCAAUAUUACGACGG,-4.06 ± 0.37,-1.71 ± 0.34
AGAGAGCAAUAUUACGGCCG,-3.41 ± 0.36,-1.39 ± 0.28
UCCUAGCAAUAUUACGCGGU,-2.34 ± 0.17,-1.63 ± 0.18
ACUGAGCAAUAUUACGGAGU,-2.8 ± 0.41,-1.78 ± 0.33
CCAAAGCAAUAUUACGGGGU,-3.24 ± 0.15,-3.43 ± 0.23
CAUGAGCAAUAUUACGUCAC,-3.36 ± 0.36,–
AUAUAGCAAUAUUACGGUGA,-1.72 ± 0.2,-1.11 ± 0.2
GAUAAGCAAUAUUACGUAUC,-3.9 ± 0.18,-2.67 ± 0.27
CGAUAGCAAUAUUACGGAGC,-3.91 ± 0.4,-1.63 ± 0.3
UUCUAGCAAUAUUACGGGUC,-3.23 ± 0.32,-1.94 ± 0.23
CAAAAGCAAUAUUACGUCCG,-0.119 ± 0.082,0.175 ± 0.1
GGAUAGCAAUAUUACGACUG,-0.737 ± 0.15,-1.08 ± 0.19
CCACAGCAAUAUUACGUCAA,-2.92 ± 0.15,-2.22 ± 0.21

Sequence,self-splicing fitness (ln) (30 °C),self-splicing fitness (ln) (37 °C)
ACAUAGCAAUAUUACGAAAG,-3.36 ± 0.22,-2.06 ± 0.23
CCUGAGCAAUAUUACGUCAC,–,-1.54 ± 0.31
ACGCAGCAAUAUUACGCGUG,-3.43 ± 0.18,-2.07 ± 0.17
GCUUAGCAAUAUUACGUGUU,-0.915 ± 0.081,-0.409 ± 0.087
UUAGAGCAAUAUUACGCAGA,1.56 ± 0.32,–
AAUUAGCAAUAUUACGAAGC,-1.94 ± 0.27,–
AUGCAGCAAUAUUACGAAGU,-2 ± 0.15,-1.75 ± 0.12
CGGAAGCAAUAUUACGUAUU,-3.43 ± 0.28,-3.37 ± 0.37
CCGUAGCAAUAUUACGUGUA,-3.5 ± 0.2,-3.25 ± 0.29
GCAUAGCAAUAUUACGCGCA,-1.09 ± 0.12,-0.397 ± 0.14
CGUUAGCAAUAUUACGUUGU,-4.22 ± 0.29,-2.78 ± 0.22
UGCAAGCAAUAUUACGUCUC,-1.76 ± 0.12,-2.67 ± 0.25
ACAAAGCAAUAUUACGCCCU,-0.361 ± 0.098,0.683 ± 0.14
GAUAAGCAAUAUUACGGUAA,-2.64 ± 0.22,-1.46 ± 0.15
ACGUAGCAAUAUUACGAUUC,-2.39 ± 0.11,-2.41 ± 0.21
CCUCAGCAAUAUUACGGUGC,-2.28 ± 0.15,-2.77 ± 0.48
AAGAAGCAAUAUUACGACAA,-0.745 ± 0.098,-0.224 ± 0.12
GGCUAGCAAUAUUACGUGCG,-0.139 ± 0.099,0.371 ± 0.15
GAGUAGCAAUAUUACGUAUA,-2.4 ± 0.29,-1.52 ± 0.22
AUUGAGCAAUAUUACGGUAG,-3.32 ± 0.24,–
UAAGAGCAAUAUUACGACGG,-3.85 ± 0.26,-2.54 ± 0.21
CCACAGCAAUAUUACGAAAC,-2.27 ± 0.29,-1.8 ± 0.34
CUUUAGCAAUAUUACGGGCA,-3.41 ± 0.26,-2.67 ± 0.21
CGGCAGCAAUAUUACGACGU,-1.45 ± 0.066,-0.471 ± 0.071
AAGAAGCAAUAUUACGAGAA,-2.07 ± 0.26,-1.87 ± 0.19

Sequence,self-splicing fitness (ln) (30 °C),self-splicing fitness (ln) (37 °C)
GAUCAGCAAUAUUACGCGCG,-0.222 ± 0.14,0.0103 ± 0.15
GACUAGCAAUAUUACGAUGA,-0.535 ± 0.1,-1.08 ± 0.08
UUGGAGCAAUAUUACGCGGC,–,-1.26 ± 0.41
AAUAAGCAAUAUUACGCACU,0.285 ± 0.075,-0.118 ± 0.082
CAAAAGCAAUAUUACGCAGC,-3.68 ± 0.16,-2.36 ± 0.16
CUAUAGCAAUAUUACGAGGG,-3.08 ± 0.21,-2.41 ± 0.27
UGGCAGCAAUAUUACGCAAC,-2.74 ± 0.18,-2.14 ± 0.39
AUUUAGCAAUAUUACGUACA,-1.7 ± 0.15,-1.39 ± 0.13
CUCUAGCAAUAUUACGCGGC,-2.81 ± 0.3,-2.45 ± 0.3
GGCGAGCAAUAUUACGGCAC,-1.36 ± 0.13,-0.093 ± 0.14
UUUAAGCAAUAUUACGGAAU,-3.63 ± 0.26,-2.36 ± 0.33
GUCGAGCAAUAUUACGUUCU,-1.32 ± 0.15,0.217 ± 0.13
GUAAAGCAAUAUUACGAUAU,-0.349 ± 0.087,-0.0732 ± 0.11
AGAAAGCAAUAUUACGGACC,-0.299 ± 0.3,0.21 ± 0.3
ACUUAGCAAUAUUACGAAUU,-2.29 ± 0.1,-0.888 ± 0.14
CUUUAGCAAUAUUACGUCUG,-0.534 ± 0.094,-0.218 ± 0.12
GUUGAGCAAUAUUACGACCC,–,-0.607 ± 0.49
AUGAAGCAAUAUUACGCCCU,0.921 ± 0.15,0.202 ± 0.17
UACAAGCAAUAUUACGCGAA,-2.37 ± 0.099,-0.769 ± 0.095
CCUUAGCAAUAUUACGAGGA,-2.8 ± 0.25,-1.69 ± 0.27
GAAGAGCAAUAUUACGUGCU,-3.52 ± 0.22,–
CGCAAGCAAUAUUACGAAAC,-3.46 ± 0.37,-0.979 ± 0.12
GCACAGCAAUAUUACGGGAG,-1.96 ± 0.1,-1.47 ± 0.12
GAUCAGCAAUAUUACGUACA,-0.607 ± 0.12,0.177 ± 0.15
GGCAAGCAAUAUUACGCCUC,-2.03 ± 0.13,-1.34 ± 0.12

Sequence,self-splicing fitness (ln) (30 °C),self-splicing fitness (ln) (37 °C)
GUCCAGCAAUAUUACGUCAC,-2.41 ± 0.14,-0.6 ± 0.13
CCGAAGCAAUAUUACGCCUA,-2.94 ± 0.22,-2.62 ± 0.28
AAGUAGCAAUAUUACGUGUU,-2.27 ± 0.093,-1.2 ± 0.095
GGCUAGCAAUAUUACGCUAG,-2.5 ± 0.3,-1.45 ± 0.34
UUCUAGCAAUAUUACGUAAA,-1.56 ± 0.26,-0.54 ± 0.23
GGUAAGCAAUAUUACGCAUU,-1.86 ± 0.14,-0.797 ± 0.12
AGAGAGCAAUAUUACGGUAA,-2.95 ± 0.31,-2.28 ± 0.33
CGAGAGCAAUAUUACGGGAA,-1.44 ± 0.33,-1.71 ± 0.44
ACGCAGCAAUAUUACGGUAU,-2.67 ± 0.15,-1.03 ± 0.12
AUACAGCAAUAUUACGCGGG,-3.46 ± 0.15,-1.75 ± 0.11
UGACAGCAAUAUUACGUCUA,-0.75 ± 0.09,-0.464 ± 0.098
CGAAAGCAAUAUUACGACGA,-0.59 ± 0.094,0.312 ± 0.09
AAUGAGCAAUAUUACGUCUU,0.00922 ± 0.083,-0.0903 ± 0.096
GUAUAGCAAUAUUACGUAGU,-2.17 ± 0.096,-1.26 ± 0.095
CGUAAGCAAUAUUACGAGUG,-2.51 ± 0.13,-0.853 ± 0.1
GAUUAGCAAUAUUACGCGGG,-2.31 ± 0.12,-2.53 ± 0.18
GAUUAGCAAUAUUACGCUGG,-1.73 ± 0.14,-1.68 ± 0.22
AUUUAGCAAUAUUACGAGAC,-2.44 ± 0.39,–
ACCAAGCAAUAUUACGGAGC,-3.33 ± 0.23,-3.2 ± 0.33
ACAGAGCAAUAUUACGGAUC,-3.24 ± 0.4,-1.85 ± 0.26
GCAUAGCAAUAUUACGAAAU,-1.98 ± 0.13,-1.31 ± 0.12
CGUCAGCAAUAUUACGAUCG,-1.74 ± 0.093,-1.61 ± 0.11
GACUAGCAAUAUUACGGAUA,-1.4 ± 0.09,-0.349 ± 0.09
UCAUAGCAAUAUUACGCCGA,-0.67 ± 0.18,0.277 ± 0.18
